Sequences and labels used below:
B1: peptide of the C-terminus segment of TBC1D31 [human] / GST-praja2_(530–570) [modified: fluorescent dye on primary amines (NHS-ester labelling); fluorescent dye on primary amines (NHS-ester labelling)] [human] (parent complex)
chain 1: WDTTGQNLIKKVRNLRQRLTARARHRCQTPHLLAA
chain 2: LDGNNNLEDDSSVSEDLDVDWSLFDGFADGLGVAEAISYVD

The variants in this test derive from B1. Kind of test: microscale thermophoresis (MST); parent: 3.7e+04 nM.
For the variant chain 1 R13A, chain 1 R16A, the Kd (in general, a measure of binding affinity in units of concentration) is around 65 µM.

For the origin of these results see publication PMC8126939, “The TBC1D31/praja2 complex controls primary ciliogenesis through PKA‐directed OFD1 ubiquitylation” (The EMBO Journal, 2021).
